Results: patent US20250352589A1, “OXYTOCIN-MIMETIC COMPOSITIONS AND USES THEREOF” (INSTITUT NATIONAL DE LA SANTÉ ET DE LA RECHERCHE MÉDICALE, priority 2021, published 2025)

T1: human OT-R (Homo sapiens, UniProt P30559)
T1 construct: expressed in transfected cells; host or cells: HEK cells
T1 sequence (P30559 1-389): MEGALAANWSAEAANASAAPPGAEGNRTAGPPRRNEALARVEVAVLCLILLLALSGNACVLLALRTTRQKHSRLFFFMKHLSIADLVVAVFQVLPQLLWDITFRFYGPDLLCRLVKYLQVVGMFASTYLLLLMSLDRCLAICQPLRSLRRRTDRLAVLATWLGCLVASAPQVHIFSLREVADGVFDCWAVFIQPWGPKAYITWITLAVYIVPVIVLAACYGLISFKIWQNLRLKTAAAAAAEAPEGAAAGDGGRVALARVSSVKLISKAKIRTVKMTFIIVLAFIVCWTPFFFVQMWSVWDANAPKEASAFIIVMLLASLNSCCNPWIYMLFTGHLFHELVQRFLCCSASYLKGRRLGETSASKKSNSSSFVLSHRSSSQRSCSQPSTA


Tests used:
human OT-R = target: T1, human OT-R; assay: Activation of OT-R by bacterial peptides: calcium release from HEK cells transfected with human OT-R; assay type: cell-based; settings: OTR expressing HEK cells
[1] = tested on: non-transfected HEK cells; assay: Negative control: activation of non-transfected HEK cells; assay type: cell-based
Procedure: The activation of OT-R by bacterial peptides was analyzed by the measurement of calcium release from HEK cells transfected with human OT-R
As a negative control, no activation of non-transfected HEK cells with OT or bacterial peptides was observed.

anti-oxytocin antibodies = assay: Proteomic analysis: 2D gel and OT immunodetection (OT IgG) of bacterial proteomes; assay type: binding; settings: 2D-immunoblotting, spots identified by mass spectrometry
Procedure: In this study, 14 bacteria-extracted proteomes were analyzed: (i) from 5 Bifidobacterium species grown in anaerobe conditions, (ii) from 5 Lactobacillus species grown in anaerobe culture conditions and (iii) from 4 aerotolerant Lactobacillus species grown in aerobe conditions. Each proteome analysis was performed in triplicate and was further separated in 3 fractions i.e. soluble (S), membrane (M), and residual (R) resulting in 9 samples/proteome). Each fraction was initially screened by western blot (WB) for the presence OT-like reactivity to validate it for further 2D-SDS-PAGE analysis. […] Finally, all fractions have been analyzed using 2D gel technique and OT immunodetection. 2D gel electrophoresis allowed to improve visibility of the less abundant proteins in a complex sample. Thereby, all samples were analyzed at least once with this method to scan optimally each proteome in the search for OT mimicry. […] The specificity for OT-like staining was controlled by pre-adsorption of OT-IgG with OT peptide.
All protein spots in silver nitrate staining gels corresponding to OT-like spots in the membrane were excised and analyzed by mass spectrometry

Molecule | specific activation of OTR (human OT-R) | activation of non-transfected HEK cells [1] | immune cross-reaction with anti-oxytocin antibodies (anti-oxytocin antibodies)
CC[C@H](C)[C@@H]1NC(=O)[C@H](Cc2ccc(O)cc2)NC(=O)[C@@H](N)CSSC[C@@H](C(=O)N2CCC[C@H]2C(=O)N[C@@H](CC(C)C)C(=O)NCC(N)=O)NC(=O)[C@H](CC(N)=O)NC(=O)[C@H](CCC(N)=O)NC1=O [OT, Oxytocin] | specifically activated OTR | no activation | 
GMP synthase (protein, listed as Lactobacillus plantarum, GMP synthase, protein expressed by Lactobacillus plantarum) MAKTDTASFDSILVLDFGSQYNQLITRRIRDFGVYSELLPNTITAEEIKARHPKGIIFSGGPNSVYDDGAFRVDPEIFKLGLPILGICYGMQLMTYTLAGGKVESADNREYGKANIDVTSDSATLFKDTPAEQSVWMSHGDLVTQAPDGFDVVATSKNCPIAAIQDVDRKLYGIQFHAEVRNTDYGNDILRHFAFDVCQAEANWSMDDFIDMQIEKIRAEVGDKKVLLGLSGGVDSSVVGVLLHKAIGTQLTSIFVDHGLLRKGEADQVMASLEGKFGLNIIKVDAKDRFLSKLAGVSDPERKRKIIGNEFIQVFDEEATKLNGMEFLAQGTLYTDVIESGTSTAQTIKSHHNVGGLPEDMQFKLIEPLRTLFKDEARELGEKLGMPSDLVWRQPFPGPGLGIRVIGEITEDKLEIVRDSDFILRDEIKKAGLDREIWQYFTVLPGIKSVGVMGDGRTYDYTVGIRAVTSIDGMTADFARIPWDVLQKISVRIVNEVDHVNRIVYDVTSKPPSTIEWE |  |  | immune cross-react with anti-oxytocin antibodies
Prolable phosphoketolase (protein, listed as Bifidobacterium pseudolongum, Probable phosphoketolase, protein expressed by Bifidobacterium pseudolongum subsp. globosum) MTNPVIGTPWQKLDRPVSEEAIEGMDKYWRVTNYMSIGQIYLRSNPLMKEPFTRDDVKHRLVGHWGTTPGLNFLLAHINRLIADHQQNTVFIMGPGHGGPAGTSQSYVDGTYTEYYPNITKDEAGLQKFFRQFSYPGGIPSHFAPETPGSIHEGGELGYALSHAYGAVMNNPSLFVPCIIGDGEAETGPLATGWQSNKLVNPRTDGIVLPILHLNGYKIANPTILARISDEELHDFFRGMGYHPYEFVAGFDNEDHMSIHRRFAELFETIFDEICDIKAAAQTDDMTRPFYPMLIFRTPKGWTCPKFIDGKKTEGSWRAHQVPLASARDTEEHFEVLKGWLESYKPEELFNADGSIKDDVTAFMPKGDLRIGANPNANGGVIREDLKLPELDQYEVTGVKEYGHGWGQVEAPRSLGAYCRDIIKNNPDSFRIFGPDETASNRLNATYEVTDKQWDNGYLSSLVDEHMAVTGQVTEQLSEHQCEGFLEAYLLTGRHGIWSSYESFVHVIDSMLNQHAKWLEATVREIPWRKPISSVNLLVSSHVWRQDHNGFSHQDPGVTSVLINKTFNNDHVTNIYFATDANMLLAISEKCFKSTNKINAIFAGKQPAPTWITLDEARAELEAGAAEWKWASNAENNDEVQVVLAAAGDVPTQEIMAASDALNKMGIKFKVVNVVDLLKLQSRENNDEALTDEEFTDLFTADKPVLFAYHSYAQDVRGLIYDRPNHDNFNVVGYKEQGSTTTPFDMVRVNDMDRYALQAAALKMIDADKYADKIDELNAFRQKAFQFAVDNGYDIPEFTDWVYPDVKVDETQMLSATAATAGDNE |  |  | immune cross-react with anti-oxytocin antibodies
Phosphoglycerate kinase (protein, listed as Bifidobacterium dentium, Phosphoglycerate kinase, protein expressed by Bifidobacterium dentium) MKTLKDLGDLKGKRVLVRADFNVPLDGTTITDDGRIKAALPTIKALREEGAKVILMAHLGRPKGKVVPELSLAPVATRLGELLGVEVPLASDTYGEDAQAKVAAMNDGDVVLLQNVRFNPEETSKDPEERAAYAKKIAALGEAFVSDGFGVVHRAQGSNYDVAADLPAAAGLLVEKEVKALSRATVDPERPLTVVLGGSKVSDKLGVIENLLDKADRLVIGGGMVYTFLKAKGLEVGTSLLEEDQVETVKGYIERAEKNGVELVLPTDIVVNPVFPKSDEDIAPEVVAADAIPADKMGLDIGPDSQKLFHDKIVDSKTVVWNGPMGVFEVPAFAAGTEAVAQGLVDATAAGAFTIVGGGDSASAVRNLGFPEDGFSHISTGGGASLEFLEGKELPGLKVLD |  |  | immune cross-react with anti-oxytocin antibodies
Glutamine-fructose-6-phosphate aminotransferase (protein, listed as Lactobacillus plantarum, Glutamine-fructose-6-phosphate aminotransferase, protein expressed by Lactobacillus plantarum) MCGIVGVTGKDSAVSILLNGLEKLEYRGYDSAGIYVNDQDGHDYLVKEKGRIDDLRKEVGEAVHGSTGIGHTRWATHGEPSVANAHPQVSADGRFYLVHNGVIENFEDLKQTYLSDVTFKSQTDTEVIVQLVDRFVTKEGLSTLAAFRKTLGLLGHSSYGFLLMDKEDPDTLYVAKNKSPLLIGVGEGFNVVCSDSLAMLDQTKDFLELHDGEIVVVKPDEIKITNQAGEPVERKPFHVDIDAAQADKGTYPFYMLKEIDEQPNVMRKLSQVYLNDAGDPIINDDLLTALKAADRLYIVAAGTSYHAGLVGAKLFESLANVPTEVHVSSEFAYNQPLLSAHPFFIFLTQSGETADSREVLLNVNDQHFPSLTITNVPNSTLSREATYTLLLHAGPEIAVASTKAYTAQIALQAILAKALGVAVDQPAATAFDVKQQLALVANGMQSLVDEKATFEKIAKSALLNTPNAFYIGRGLDYAVSLETALKLKEISYVQAEGFASGELKHGTIALIEKDTPVIGIITQKNTAGLTRSNLQEVAARGAKTVTIVTDSLAKDGDTVILPTVDERLTALLSVVPGQLLAYYTSLNKGLDVDKPRNLAKSVTVE |  |  | immune cross-react with anti-oxytocin antibodies
Phosphoketolase (protein, listed as Bifidobacterium dentium, phosphoketolase, protein expressed by Bifidobacterium dentium) MTSPVIGTPWKKLNAPVSEEAIEGVDKYWRAANYLSIGQIYLRSNPLMKEPFTREDVKHRLVGHWGTTPGLNFLIGHINRLIADHQQNTVIIMGPGHGGPAGTAQSYLDGTYTEYFPNITKDEAGLQKFFRQFSYPGGIPSHYAPETPGSIHEGGELGYALSHAYGAVMNNPSLFVPAIVGDGEAETGPLATGWQSNKLVNPRTDGIVLPILHLNGYKIANPTILSRISDEELHEFFHGMGYEPYEFVAGFDNEDHLSIHRRFAELFETVFDEICDIKAAAQTDDMTRPFYPMIIFRTPKGWTCPKFIDGKKTEGSWRSHQVPLASARDTEAHFEVLKNWLESYKPEELFDANGAVKPEVTAFMPTGELRIGENPNANGGRIREELNLPALEDYEVKEVAEYGHGWGQLEATRRLGVYTRDIIKNNPDSFRIFGPDETASNRLQAAYDVTNKQWDAGYLSAQVDEHMAVTGQVTEQLSEHQMEGFLEAYLLTGRHGIWSSYESFVHVIDSMLNQHAKWLEATVREIPWRKPISSMNLLVSSHVWRQDHNGFSHQDPGVTSVLLNKCFNNDHVIGIYFPVDSNMLLAVAEKCYKSTDMINAIIAGKQPAATWLTLDEARAELEKGAAEWEWASTAKSNDEAQIVLASAGDVPAQEIMAAADKLDAMGIKFKVVNVVDLVKLQSTKENDEAISDADFADLFTEDKPVLFAYHSYARDVRGLIYDRPNHDNFNVHGYEEQGSTTTPYDMVRVNNIDRYELVAEALRMIDADKYADKIDELEAFRKEAFQFAVDNGYDHPDYTDWVYSGVNTNKQGAVSATAATAGDNE |  |  | immune cross-react with anti-oxytocin antibodies
Enolase 1 (protein, listed as Lactobacillus gasseri, enolase1, protein expressed by Lactobacillus gasseri) MLKSVIENVHALEIFDSRGNPTVEVFVTLSNGVVGKAEVPSGASTGENEAVELRDGGSRLGGKGVMNAVNNVNTEINDALKGLDPHDQPNIDATMIALDGTPNKGRLGANAILGVSMATACAAAKDNHQPLYRYLGGTDLEMPQTFHNVINGGEHADNGIDIQEFMITPVAKTSFRDGFEKIVNVYHTLKKVLEDMGYETGLGDEGGFAPNMKNSEEALKALHESIIKAGYKPGEDIAIACDCAASYFYNKEDGKYHLEGKVLTDEELADYYDKLLDEFPELISMEDPYDENDVEGMVKFTESHKDRIQIVLDDFICTNPKLLNKAIHEGAGNASLIKLNQIGTVTETLETIRLSRKNGYNTMISHRSGETGDTFIADFAVAVNGGQLKSGAPARSERVEKYNRLLEIEEELGKGERLAFFPDNVDLD |  |  | immune cross-react with anti-oxytocin antibodies
